Data on four molecules can be found in patent US12168044B2, “Peptides and combination of peptides for use in immunotherapy against non-small cell lung cancer and other cancers” (priority 2016, dated 2024).

Assay [1] addresses HLA-A*0201 molecule (Homo sapiens, UniProt P04439, D140Y/D185E/D98H/E176V/E277Q/G131W/G231S/I119V/I121R/I166T/I218V/L300P/L318F/N151K/N90K/P208A/P217A/Q86G/Q94H/R138H/R169H/T345S). The following applies: Wu et al. 2011; cited from earlier work.
Assay [2] concerns T-cells of healthy donors. Briefly: Immunogenicity and functional T-cell data (Example 6). The format is cell-based, human. Here is the method: The immunogenicity of MAG-003 was tested using protocols that mimic the manufacturing procedure for a pharmaceutical product.
Assay [3] relates to HLA-A*0201-positive PBMCs. The settings on record: cited from earlier work.
For assay [4], the target named is HLA-A*02:01 (Homo sapiens, UniProt P04439, D140Y/D185E/D98H/E176V/E277Q/G131W/G231S/I119V/I121R/I166T/I218V/L300P/L318F/N151K/N90K/P208A/P217A/Q86G/Q94H/R138H/R169H/T345S). Briefly: Binding to HLA-A*02:01 (additional data, Example 6).
Assay [5] relates to HLA-A*0201/Kb transgenic mice. The following applies: cited from earlier work.
In assay [6] the test system is advanced esophageal, stomach or lung cancer. The following applies: of 15 patients who completed one vaccination cycle; cited from earlier work.

On to “KVLEHVVRV (listed as Homo sapiens) [MAG-003]”, for which, in assay [1], the “binding affinity and stability towards HLA-A*0201 molecule” value is “potent binding affinity and stability”. In addition, the “killing of peptide loaded target cells by generated T cells” value in assay [2] is “able to kill peptide loaded target cells”. Besides, the “priming of peptide-specific T-cells” value in assay [2] (healthy donors, protocols mimicking manufacturing procedure) is “Priming of MAG-003-specific T-cells was observed”. Further, in assay [3] (Jia et al. 2010), the “lysis of target cells by the induced CTLs” value is given as “lyse target cells in an HLA-A*0201-restricted fashion”. For the same molecule, the “elicitation of peptide-specific CTLs” value in assay [3] (in vitro from HLA-A*0201-positive PBMCs, Jia et al. 2010) is recorded as “elicits peptide-specific CTLs”; in assay [5] (HLA-A*0201/Kb transgenic mice, Jia et al. 2010) it was “elicits peptide-specific CTLs”. Further, the “binding to HLA-A*02:01” value in assay [4] is recorded as “very good binding”.

Take “p286-1Y2L9L: MAG-003 variant having 3 amino acid substitutions, printed as SEQ ID NO:3 (KVLEHVVRA; listed as Homo sapiens)”: the “binding affinity and stability towards HLA-A*0201 molecule” value in assay [1] is “potent binding affinity and stability”. Also, the “induction of specific CTLs that lyse target cancer cells” value in assay [3] (PBMCs of healthy donors, Wu et al. 2011) is recorded as “capability to induce specific CTLs”; in assay [5] (HLA-A2.1/Kb transgenic mice, Wu et al. 2011), “capability to induce specific CTLs”.

In the case of “p286-1Y2L: MAG-003 variant having 2 amino acid substitutions, printed as SEQ ID NO:2 (KVLEHVVRL; listed as Homo sapiens)”, the “binding affinity and stability towards HLA-A*0201 molecule” value in assay [1] was “potent binding affinity and stability”.

B1: MAGEA4 vaccine: MAGEA4 vaccine containing protein, given subcutaneously once every 2 weeks in six doses (Saito et al., 2014) (protein, UniProt P43358 1-317, looked up)
Melanoma-associated antigen 4: MSSEQKSQHCKPEEGVEAQEEALGLVGAQAPTTEEQEAAVSSSSPLVPGTLEEVPAAESAGPPQSPQGASALPTTISFTCWRQPNEGSSSQEEEGPSTSPDAESLFREALSNKVDELAHFLLRKYRAKELVTKAEMLERVIKNYKRCFPVIFGKASESLKMIFGIDVKEVDPASNTYTLVTCLGLSYDGLLGNNQIFPKTGLLIIVLGTIAMEGDSASEEEIWEELGVMGVYDGREHTVYGEPRKLLTQDWVQENYLEYRQVPGSNPARYEFLWGPRALAETSYVKVLEHVVRVNARVRIAYPSLREAALLEEEEGV
modifications: vaccine formulation
For the molecule B1, in assay [6], the “patients with CD4 T-cell response” value was “three”, the “patients with CD8 T-cell response” value is “six” and the “patients with MAGEA4-specific humoral response” value is reported as “four”.
